# According to PMC11951571, “Mechanism of non-coding RNA regulation of DNMT3A”:
# Tests used:
# DNMT3A_FL WT [1] = biological target: T1, DNMT3A_FL WT (human, UniProt Q9Y6K1 1-912); assay: fluorescence anisotropy; 1 uM protein in complex with 10 nM FAM-H3K4me0 peptide (1-21); 50 uM sinefungin; no anisotropy change; 50 mM KH2PO4/K2HPO4 pH 7.8, 1 mM EDTA, 1 mM DTT, 0.2 mg/ml BSA, 20 mM NaCl, 50 uM sinefungin (printed 'μm'), room temperature, 5 min
# DNMT3A_FL WT [2] = biological target: T1, DNMT3A_FL WT; assay: fluorescence anisotropy; 1 uM protein in complex with 10 nM FAM-H3K4me0 peptide (1-21); 50 uM sinefungin; 50 mM KH2PO4/K2HPO4 pH 7.8, 1 mM EDTA, 1 mM DTT, 0.2 mg/ml BSA, 20 mM NaCl, 50 uM sinefungin (printed 'μm'), room temperature, 5 min
# DNMT3A_CD WT = DNMT3A_CD WT (human, UniProt Q9Y6K1 634-912); assay: fluorescence anisotropy; 1 uM protein pre-bound to 10 nM FAM-GCbox30; 50 uM sinefungin; anisotropy rises on RNA addition; 50 mM KH2PO4/K2HPO4 pH 7.8, 1 mM EDTA, 1 mM DTT, 0.2 mg/ml BSA, 20 mM NaCl, 50 uM sinefungin (printed 'μm'), room temperature, 5 min; details: protein: recombinant; tags: His (pET28a, nickel column); chain copies: 4; 25 nt
# DNMT3A_CD R729A = DNMT3A_CD R729A (human, UniProt Q9Y6K1 634-912, R729A); assay: fluorescence anisotropy; 1 uM protein pre-bound to 10 nM FAM-GCbox30; 50 uM sinefungin; 50 mM KH2PO4/K2HPO4 pH 7.8, 1 mM EDTA, 1 mM DTT, 0.2 mg/ml BSA, 20 mM NaCl, 50 uM sinefungin (printed 'μm'), room temperature, 5 min; details: protein: recombinant; tags: His (pET28a, nickel column); chain copies: 2; 25 nt
# DNMT3A_CD R736A = DNMT3A_CD R736A (human, UniProt Q9Y6K1 634-912, R736A); assay: as above; details: protein: recombinant; tags: His (pET28a, nickel column); chain copies: 4; 25 nt
# DNMT3A_CD R771A;DNMT3L = DNMT3A_CD R771A;DNMT3L (human;human, UniProt Q9Y6K1;Q9UJW3 634-912;1-386, R771A|); assay: fluorescence anisotropy; heterotetramer pre-bound to 10 nM FAM-GCbox30; 50 uM sinefungin; 50 mM KH2PO4/K2HPO4 pH 7.8, 1 mM EDTA, 1 mM DTT, 0.2 mg/ml BSA, 20 mM NaCl, 50 uM sinefungin (printed 'μm'), room temperature, 5 min; details: protein: recombinant;recombinant; tags: His (pET28a, nickel column);; chain copies: 2;2; 25 nt
# DNMT3A_CD R771A;DNMT3L, sequence (Q9Y6K1 634-912 R771A, chain 1 of 2): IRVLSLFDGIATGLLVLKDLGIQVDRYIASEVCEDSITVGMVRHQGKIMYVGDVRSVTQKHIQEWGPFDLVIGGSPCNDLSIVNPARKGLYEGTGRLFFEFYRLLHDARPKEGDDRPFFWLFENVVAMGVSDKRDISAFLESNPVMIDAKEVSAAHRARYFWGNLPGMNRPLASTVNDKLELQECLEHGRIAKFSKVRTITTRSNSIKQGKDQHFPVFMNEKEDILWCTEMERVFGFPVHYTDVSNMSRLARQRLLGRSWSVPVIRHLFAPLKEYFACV
# DNMT3A_CD R771A;DNMT3L, sequence (Q9UJW3 whole entry, chain 2 of 2): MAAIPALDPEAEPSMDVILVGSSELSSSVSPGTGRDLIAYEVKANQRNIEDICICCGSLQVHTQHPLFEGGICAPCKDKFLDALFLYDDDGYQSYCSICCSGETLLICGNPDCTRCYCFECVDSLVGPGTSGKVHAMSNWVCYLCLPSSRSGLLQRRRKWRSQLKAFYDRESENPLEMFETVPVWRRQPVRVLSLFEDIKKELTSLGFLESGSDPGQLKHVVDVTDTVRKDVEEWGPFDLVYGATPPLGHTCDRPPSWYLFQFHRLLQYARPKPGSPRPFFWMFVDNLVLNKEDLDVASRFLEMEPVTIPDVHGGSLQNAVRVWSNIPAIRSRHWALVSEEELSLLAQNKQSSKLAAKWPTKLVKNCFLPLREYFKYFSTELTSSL
# T1 sequence (Q9Y6K1 whole entry): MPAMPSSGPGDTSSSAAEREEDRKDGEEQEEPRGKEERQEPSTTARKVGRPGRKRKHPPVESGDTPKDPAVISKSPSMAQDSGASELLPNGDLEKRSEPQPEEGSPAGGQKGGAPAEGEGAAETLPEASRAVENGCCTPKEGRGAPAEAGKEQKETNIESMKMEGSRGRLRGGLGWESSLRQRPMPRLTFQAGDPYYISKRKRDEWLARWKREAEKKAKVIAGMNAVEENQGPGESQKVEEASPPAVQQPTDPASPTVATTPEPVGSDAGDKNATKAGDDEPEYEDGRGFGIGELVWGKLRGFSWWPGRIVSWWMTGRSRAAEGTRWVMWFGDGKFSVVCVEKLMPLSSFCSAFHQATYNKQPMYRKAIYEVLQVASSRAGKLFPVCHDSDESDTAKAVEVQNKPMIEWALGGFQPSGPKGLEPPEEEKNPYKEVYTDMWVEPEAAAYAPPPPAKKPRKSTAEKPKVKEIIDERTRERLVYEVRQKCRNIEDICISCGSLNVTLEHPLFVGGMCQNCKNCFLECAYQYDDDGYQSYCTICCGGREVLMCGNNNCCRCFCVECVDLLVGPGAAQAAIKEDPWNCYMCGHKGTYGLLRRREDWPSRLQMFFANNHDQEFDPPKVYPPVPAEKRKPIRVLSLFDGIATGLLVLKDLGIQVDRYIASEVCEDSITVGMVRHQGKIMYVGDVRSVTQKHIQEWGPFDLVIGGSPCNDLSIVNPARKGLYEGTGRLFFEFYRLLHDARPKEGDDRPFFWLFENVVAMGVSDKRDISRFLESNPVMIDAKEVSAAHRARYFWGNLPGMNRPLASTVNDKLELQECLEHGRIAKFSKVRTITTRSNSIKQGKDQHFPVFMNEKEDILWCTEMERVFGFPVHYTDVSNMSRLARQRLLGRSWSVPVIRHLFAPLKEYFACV
# DNMT3A_CD R729A, sequence (Q9Y6K1 634-912 R729A): as the sequence (Q9Y6K1 634-912 R771A, chain 1 of 2) above, with R96A, A138R counted along it
# DNMT3A_CD R736A, sequence (Q9Y6K1 634-912 R736A): as the sequence (Q9Y6K1 634-912 R771A, chain 1 of 2) above, with R103A, A138R counted along it
# DNMT3A_CD WT, sequence (Q9Y6K1 634-912): as the sequence (Q9Y6K1 634-912 R771A, chain 1 of 2) above, with A138R counted along it
Binder,binding result (DNMT3A_FL WT [1]),binding result (DNMT3A_FL WT [2]),binding result (DNMT3A_CD WT),binding result (DNMT3A_CD R729A),binding result (DNMT3A_CD R736A),binding result (DNMT3A_CD R771A;DNMT3L)
CGACCGCCUACUGAAAGAGGGC (ssRNA) [non-specific RNA],no binding,,,,,
GGGGACACGCCCUCUGUUCCCUUAU (ssRNA) [Fos-1 ecRNA],,binds,binds,binds,binds,binds
